Experimental findings from article PMC10312975 (Research Square, 2023) are described below.

B1: CCDC22 DBD (280-446), untagged (domain or fragment, human, UniProt O60826 280-446, looked up)
chain: GAGAKTGAPKGSRFTHSEKFTFHLEPQAQATQVSDVPATSRRPEQVTWAAQEQELESLREQLEGVNRSIEEVEADMKTLGVSFVQAESECRHSKLSTAEREQALRLKSRAVELLPDGTANLAKLQLVVENSAQRVIHLAGQWEKHRVPLLAEYRHLRKLQDCRELES
notes: CCDC22, human, DBD; source: E. coli BL21 (DE3) T1R, purified, MBP removed with TEV; not shown: MBP, N-terminal, cleaved

Holding throughout (conditions): both partners purified
Assay [1] addresses T1, DENND10, full length, His6 tag removed (human, UniProt Q8TCE6 1-357).
T1 construct: DENND10 (FAM45A), human, codon-optimised gene; source: E. coli BL21 (DE3) T1R, purified (Source 15Q, TEV cleavage, Source 15Q); not shown: His6, N-terminal, cleaved
As to the kind of experiment: SEC; untagged DBD dimer and DENND10, alone and mixed; Superdex 200, 100 mM NaCl, 10 mM HEPES pH 7.0, 5% glycerol, 1 mM DTT; SDS-PAGE of fractions.

The target of assay [2] is T2, His6-Tev-DENND10, full length (pull-down prey) (human, UniProt Q8TCE6 1-357).
T2 construct: DENND10 (FAM45A), human, codon-optimised gene; source: E. coli BL21 (DE3) T1R, purified (Ni-NTA, Source 15Q, Superdex Increase 200)
T2 sequence (Q8TCE6 whole entry): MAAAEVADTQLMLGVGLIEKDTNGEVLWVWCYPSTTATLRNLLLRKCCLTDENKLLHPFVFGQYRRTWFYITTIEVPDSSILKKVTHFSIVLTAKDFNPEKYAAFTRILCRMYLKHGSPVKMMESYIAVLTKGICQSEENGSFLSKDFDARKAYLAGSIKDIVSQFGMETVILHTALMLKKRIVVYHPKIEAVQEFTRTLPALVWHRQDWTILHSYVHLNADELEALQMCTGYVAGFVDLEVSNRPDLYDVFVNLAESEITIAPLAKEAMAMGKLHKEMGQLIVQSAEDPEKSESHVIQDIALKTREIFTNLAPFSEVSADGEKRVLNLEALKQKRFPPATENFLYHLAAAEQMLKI
As to the kind of experiment: pull-down; MBP-tagged DBD dimer (200 pmol) as bait on amylose beads, DENND10 (500 pmol) as prey; 10 mM HEPES pH 7, 150 mM NaCl, 5% glycerol, 0.05% Triton X-100, 5 mM beta-mercaptoethanol, 4 °C, 30 min; Coomassie.

The target in assay [3] is B1. As to the kind of experiment: SEC; untagged DBD dimer and DENND10, alone and mixed; Superdex 200, 100 mM NaCl, 10 mM HEPES pH 7.0, 5% glycerol, 1 mM DTT; SDS-PAGE of fractions.
In another assay the target is T3, MBP-CCDC22 (280-446) (human, UniProt O60826 280-446).
T3 construct: CCDC22, human, DBD; also called MBP-CCDC22 DBD; source: E. coli BL21 (DE3) T1R, purified (amylose); not shown: MBP, N-terminal, kept
In words: reconstitution by mixing and co-purification; amylose-purified MBP-tagged CCDC22 and CCDC93 fragments mixed about 1:1, overnight at 4 °C, then Source 15Q and Superdex 200.

T1 sequence (Q8TCE6 whole entry): as above

For B1, in assay [1], the binding result is given as “binds”.

B2: MBP-tagged CCDC22-CCDC93 DBD dimer, CCDC93 E410R (complex, human)
chain 1: GAGAKTGAPKGSRFTHSEKFTFHLEPQAQATQVSDVPATSRRPEQVTWAAQEQELESLREQLEGVNRSIEEVEADMKTLGVSFVQAESECRHSKLSTAEREQALRLKSRAVELLPDGTANLAKLQLVVENSAQRVIHLAGQWEKHRVPLLAEYRHLRKLQDCRELES
chain 2: SPEKLGTSQLHRRKVISLNKQIAQKTKHLEELRASHTSLQARYNEAKKTLTELKTYSEKLDKEQAALEKIESKADPSILQNLRALVAMNENLKSQEQEFKAHCRERMTRLQQEIENLKAERAPRGDEKT
notes: CCDC22, human, DBD; CCDC93, human, DBD; source: E. coli BL21 (DE3) T1R, purified; not shown: MBP, N-terminal, kept
Consider B2, for which the binding result in assay [2] was “binds”.

B3: MBP-tagged CCDC22-CCDC93 DBD dimer (complex, human)
chain 1: GAGAKTGAPKGSRFTHSEKFTFHLEPQAQATQVSDVPATSRRPEQVTWAAQEQELESLREQLEGVNRSIEEVEADMKTLGVSFVQAESECRHSKLSTAEREQALRLKSRAVELLPDGTANLAKLQLVVENSAQRVIHLAGQWEKHRVPLLAEYRHLRKLQDCRELES
chain 2: SPEKLGTSQLHRRKVISLNKQIAQKTKHLEELRASHTSLQARYNEAKKTLTELKTYSEKLDKEQAALEKIESKADPSILQNLRALVAMNENLKSQEQEFKAHCREEMTRLQQEIENLKAERAPRGDEKT
notes: CCDC22, human, DBD (CC1, CC2a); CCDC93, human, DBD (CC1, CC2a); also called DBD heterodimer; source: E. coli BL21 (DE3) T1R, purified (amylose, mixed about 1:1, Source 15Q, Superdex 200); not shown: MBP, N-terminal, kept
In the case of B3, in assay [2], the binding result is on record as “binds”.

B4: CCDC93 DBD (305-433), untagged (domain or fragment, human, UniProt Q567U6 305-433, looked up)
chain: SPEKLGTSQLHRRKVISLNKQIAQKTKHLEELRASHTSLQARYNEAKKTLTELKTYSEKLDKEQAALEKIESKADPSILQNLRALVAMNENLKSQEQEFKAHCREEMTRLQQEIENLKAERAPRGDEKT
notes: CCDC93, human, DBD; source: E. coli BL21 (DE3) T1R, purified, MBP removed with TEV; not shown: MBP, N-terminal, cleaved
For the molecule B4, the binding result in assay [3] and in assay [1] was “binds” in each case.

B5: MBP-CCDC93 (305-433) (domain or fragment, human, UniProt Q567U6 305-433, looked up)
chain: SPEKLGTSQLHRRKVISLNKQIAQKTKHLEELRASHTSLQARYNEAKKTLTELKTYSEKLDKEQAALEKIESKADPSILQNLRALVAMNENLKSQEQEFKAHCREEMTRLQQEIENLKAERAPRGDEKT
notes: CCDC93, human, DBD; also called MBP-CCDC93 DBD; source: E. coli BL21 (DE3) T1R, purified (amylose); not shown: MBP, N-terminal, kept
Take B5: the binding result in the assay with MBP-CCDC22 (280-446) is “binds”.
